In patent US20120022128:

Columns and labels:
recombinant PKIB = tested on: T1, recombinant PKIB
T1 sequence: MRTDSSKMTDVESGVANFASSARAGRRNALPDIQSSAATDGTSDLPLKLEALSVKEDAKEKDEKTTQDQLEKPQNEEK

Question: What does the source list for recombinant PKA-C kinase?
Answer: phosphorylation of Akt-Ser473 by PKA-C, in vitro kinase assay with recombinant proteins (recombinant PKIB): the phosphorylation level of Akt (Ser473) was clearly enhanced by addition of PKIB; phosphorylation of Akt-Ser473, in vitro kinase assay with recombinant proteins (western blot with anti-phospho-Akt (Ser473) antibody) (recombinant Akt): phosphorylated Ser473-specific antibody detected phosphorylated Akt when PKA-C kinase reacted with recombinant Akt
